According to patent US20250136720A1 (Boehringer Ingelheim, published 2025):
Residue numbers refer to the chain shown, from its start. Numbers in names are those of the source. Each block holds one binder with its values, some of them ahead of it.

Tests used:
[1] = molecular target: T1, Human CD137 on Jurkat cells (human, UniProt Q07011 24-255); assay: flow cytometry, Jurkat cells;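 further: binding of antibody-containing supernatants to NF-kB-Luc2/4-1BB Jurkat cells, detected by flow cytometry with a PE-labelled anti-human IgG-Fc secondary antibody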
T1 construct: whole, on cells; also called full-length human CD137-expressing Jurkat cell line; NF-kB-Luc2/4-1BB Jurkat
Protocol: Briefly, HTP supernatants containing recombinant IgG1 (KO) antibodies, were assayed by flow cytometry for binding to the NF-kB-Luc2/4-1BB Jurkat cell line. […] The cells were washed x3 with staining buffer. A Goat F(ab′)2 anti-human IgG-Fc PE secondary antibody was added to the cells and the plate was incubated for 30 min at 4° C. The cells were wash ×3 with staining buffer.

[2] = molecular target: T1, Human CD137 on Jurkat cells; assay: cell-based or functional assay; set-up: IC90; Jurkat-CD137 NFkB-luciferase, HT1080-FAP co-culture / EC90; Jurkat-CD137 NFkB-luciferase, HT1080-FAP co-culture: unit not given beside the values
[3] = molecular target: T1, Human CD137 on Jurkat cells; assay: cell-based or functional assay

B1: CD137 #B30 (antibody, human IgG1, V domains shown)
VH: QVQLQQSGPQLIRPGASVKISCKASGYSFTGYWIHWVKQRPGQGLEWIGMIDPSDSETRLNQKFKDKATLTVDKSSTTAYMQLSSPTSEDSAVFYCARYRNYGYDGFAHWGQGTLVTVSA
VL: DIVMTQSPSSLTVTAGEKVTMSCKSSQSLLNSGNEKNYLAWYQQKPGQPPKLLIYWASTRESGVPDRFTGSGSGTDFTLTISSVQTEDLAVYHCQNDYSLPLTFGAGTKLELK
notes: human IgG1 KO (L234A/L235A)/kappa chimeric IgG
binding result [1]: binds

B2: CD137 #B31 (antibody, human IgG1, V domains shown)
VH: B1 VH
VL: B1 VL
notes: as for B1
binding result [1]: binds

B3: CD137 #A30 (antibody, human IgG1, V domains shown)
VH: QVQLQQPGTEFVKPGASVKLSCKASDYTFTSHWMHWVKQRPGQGLEWIGEIDPSDSYTNYIQKFKGKATLTVDKSSSTAYMQLSSLTSEDSAVYYCARGDYYGTRYFDVWGAGTTVIVSS
VL: DIVMTQSPSSLSVSAGEKVTMSCKSGQNLFNSGNQKNYLAWYQQKPGQPPRLLIYGASTRESGVPDRFTGSGSGTDFTLTISSVQAEDLAVYYCQNDQSYPPTFGAGTKLELK
notes: as for B1
binding result [1]: binds

B4: CD137 #A46 (antibody, human IgG1, V domains shown)
VH: QVQLAQSGAEVKKPGASVKVSCKASGYTFSSFPMHWVRQAPGQRLEWMGWSNAGIGNTKYSQEFQGRVTITRDTSASTAYMELSSLRSEDMAVYYCAREGLTGAFDYWGQGTLVTVSS
VL: DIVMTQSPLSLPVTPGEPASISCRSSQSLLHSNGYNYLGWHLQKPGQSPQLLIYLGSYRASGVPDRFSGSGSGTDFTLKISRVEAEDVGVYYCMQPLQIPLTFGGGTKVEIK
notes: as for B1
binding result [1]: binds

B5: CD137 #A57 (antibody, human IgG1, V domains shown)
VH: B4 VH with A5V, A24T, S30T, F32Y, I55N, I70L, Y80F
VL: not shown
notes: as for B1
binding result [1]: binds

B7: CD137 #2 (B21.V16) + FAP #2 (A11 VK3/VH3) (bispecific antibody, human IgG1, kappa, L234A L235A)
heavy: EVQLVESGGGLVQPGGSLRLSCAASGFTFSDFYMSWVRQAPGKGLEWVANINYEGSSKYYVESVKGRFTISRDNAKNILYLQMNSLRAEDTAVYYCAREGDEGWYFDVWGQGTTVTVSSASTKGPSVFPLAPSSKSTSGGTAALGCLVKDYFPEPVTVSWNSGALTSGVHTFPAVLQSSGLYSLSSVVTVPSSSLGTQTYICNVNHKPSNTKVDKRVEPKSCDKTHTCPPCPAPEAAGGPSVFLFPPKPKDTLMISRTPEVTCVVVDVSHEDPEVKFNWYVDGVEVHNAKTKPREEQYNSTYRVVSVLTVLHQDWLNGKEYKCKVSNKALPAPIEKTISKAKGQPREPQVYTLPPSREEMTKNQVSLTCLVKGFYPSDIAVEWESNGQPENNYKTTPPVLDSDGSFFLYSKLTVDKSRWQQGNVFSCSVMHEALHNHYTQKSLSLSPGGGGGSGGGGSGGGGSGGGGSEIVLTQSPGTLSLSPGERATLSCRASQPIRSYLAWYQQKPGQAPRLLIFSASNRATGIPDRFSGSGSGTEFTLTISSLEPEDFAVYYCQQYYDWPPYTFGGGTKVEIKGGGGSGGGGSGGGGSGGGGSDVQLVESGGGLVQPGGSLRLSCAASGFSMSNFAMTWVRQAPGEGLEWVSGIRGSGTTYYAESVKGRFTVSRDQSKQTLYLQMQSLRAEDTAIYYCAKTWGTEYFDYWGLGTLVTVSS
light: DIQMTQSPSSLSASVGDRVTITCKASQDISSAVAWYQQKPGKAPKLLIYSASSRYTGVPSRFSGSGSGTDFTLTISSLQPEDFAVYYCQQHYSNPWTFGQGTKLEIKRTVAAPSVFIFPPSDEQLKSGTASVVCLLNNFYPREAKVQWKVDNALQSGNSQESVTEQDSKDSTYSLSSTLTLSKADYEKHKVYACEVTHQGLSSPVTKSFNRGEC
EC90; Jurkat-CD137 NFkB-luciferase, HT1080-FAP co-culture [2]: 3.14
IC90; Jurkat-CD137 NFkB-luciferase, HT1080-FAP co-culture [2]: 127
Total AUC; Jurkat-CD137 NFkB-luciferase, HT1080-FAP co-culture [2]: 3.3e+06
Average EC50; Jurkat-CD137 NFkB-luciferase, HT1080-FAP co-culture [3]: 0.165 nM
Average EC90; Jurkat-CD137 NFkB-luciferase, HT1080-FAP co-culture [3]: 1.47 nM
Average IC50; Jurkat-CD137 NFkB-luciferase, HT1080-FAP co-culture [3]: 847 nM
Average IC90; Jurkat-CD137 NFkB-luciferase, HT1080-FAP co-culture [3]: 87.8 nM
Ratio IC50/EC50; Jurkat-CD137 NFkB-luciferase, HT1080-FAP co-culture [3]: 5130
Ratio IC90/EC90; Jurkat-CD137 NFkB-luciferase, HT1080-FAP co-culture [3]: 59.7

B8: CD137 #4 (B21.V25) + FAP #5 (C3 VK1/VH4) (bispecific antibody, human IgG1, kappa, L234A L235A)
heavy: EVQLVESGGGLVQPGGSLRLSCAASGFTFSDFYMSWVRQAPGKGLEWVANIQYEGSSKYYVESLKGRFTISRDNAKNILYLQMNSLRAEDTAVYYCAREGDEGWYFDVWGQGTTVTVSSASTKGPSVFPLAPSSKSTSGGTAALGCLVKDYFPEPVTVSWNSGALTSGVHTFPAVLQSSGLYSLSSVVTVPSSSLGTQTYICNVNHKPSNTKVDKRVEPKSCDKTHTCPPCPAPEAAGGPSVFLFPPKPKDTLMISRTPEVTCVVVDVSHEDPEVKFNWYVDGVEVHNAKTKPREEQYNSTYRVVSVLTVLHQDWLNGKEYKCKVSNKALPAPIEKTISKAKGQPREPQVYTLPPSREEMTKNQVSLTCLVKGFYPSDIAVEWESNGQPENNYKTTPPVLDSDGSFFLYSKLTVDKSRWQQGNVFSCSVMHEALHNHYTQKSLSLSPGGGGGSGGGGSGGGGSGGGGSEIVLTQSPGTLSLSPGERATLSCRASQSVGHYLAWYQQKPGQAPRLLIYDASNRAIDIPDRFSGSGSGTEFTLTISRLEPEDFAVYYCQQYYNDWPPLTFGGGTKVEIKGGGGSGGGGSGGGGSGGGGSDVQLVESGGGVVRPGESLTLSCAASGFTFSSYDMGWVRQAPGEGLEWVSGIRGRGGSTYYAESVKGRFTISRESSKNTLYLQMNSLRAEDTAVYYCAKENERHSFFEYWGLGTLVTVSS
light: B7 light with K24R, D28S, S31T, S50A, S53Y, R54L, T56S
EC90; Jurkat-CD137 NFkB-luciferase, HT1080-FAP co-culture [2]: 1.38
IC90; Jurkat-CD137 NFkB-luciferase, HT1080-FAP co-culture [2]: 77.8
Total AUC; Jurkat-CD137 NFkB-luciferase, HT1080-FAP co-culture [2]: 3e+06
Average EC50; Jurkat-CD137 NFkB-luciferase, HT1080-FAP co-culture [3]: 0.175 nM
Average EC90; Jurkat-CD137 NFkB-luciferase, HT1080-FAP co-culture [3]: 1.25 nM
Average IC50; Jurkat-CD137 NFkB-luciferase, HT1080-FAP co-culture [3]: 559 nM
Average IC90; Jurkat-CD137 NFkB-luciferase, HT1080-FAP co-culture [3]: 98.6 nM
Ratio IC50/EC50; Jurkat-CD137 NFkB-luciferase, HT1080-FAP co-culture [3]: 3190
Ratio IC90/EC90; Jurkat-CD137 NFkB-luciferase, HT1080-FAP co-culture [3]: 79

B9: CD137 #2 (B21.V16) + FAP #5 (C3 VK1/VH4) (bispecific antibody, human IgG1, kappa, L234A L235A)
heavy: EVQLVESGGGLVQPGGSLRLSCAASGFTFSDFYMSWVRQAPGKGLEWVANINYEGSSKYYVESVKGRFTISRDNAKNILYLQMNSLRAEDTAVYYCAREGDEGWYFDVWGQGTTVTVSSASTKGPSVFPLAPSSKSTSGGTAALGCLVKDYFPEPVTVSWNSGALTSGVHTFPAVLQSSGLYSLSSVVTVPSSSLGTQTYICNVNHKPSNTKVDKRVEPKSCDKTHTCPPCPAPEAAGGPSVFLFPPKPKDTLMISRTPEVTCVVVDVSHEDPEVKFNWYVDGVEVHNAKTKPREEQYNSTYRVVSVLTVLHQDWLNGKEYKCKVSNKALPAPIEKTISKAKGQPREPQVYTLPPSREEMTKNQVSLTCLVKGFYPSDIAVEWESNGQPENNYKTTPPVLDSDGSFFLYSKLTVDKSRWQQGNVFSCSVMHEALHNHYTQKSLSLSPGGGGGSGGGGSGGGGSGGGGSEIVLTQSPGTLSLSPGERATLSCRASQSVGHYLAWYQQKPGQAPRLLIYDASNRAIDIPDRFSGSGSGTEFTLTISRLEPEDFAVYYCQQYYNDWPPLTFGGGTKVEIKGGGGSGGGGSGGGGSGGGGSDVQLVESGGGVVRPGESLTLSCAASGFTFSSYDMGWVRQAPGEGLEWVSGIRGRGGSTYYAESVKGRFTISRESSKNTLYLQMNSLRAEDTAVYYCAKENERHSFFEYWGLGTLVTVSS
light: B7 light
EC90; Jurkat-CD137 NFkB-luciferase, HT1080-FAP co-culture [2]: 0.87
IC90; Jurkat-CD137 NFkB-luciferase, HT1080-FAP co-culture [2]: 74.3
Total AUC; Jurkat-CD137 NFkB-luciferase, HT1080-FAP co-culture [2]: 3.6e+06
Average EC50; Jurkat-CD137 NFkB-luciferase, HT1080-FAP co-culture [3]: 0.233 nM
Average EC90; Jurkat-CD137 NFkB-luciferase, HT1080-FAP co-culture [3]: 2.23 nM
Average IC50; Jurkat-CD137 NFkB-luciferase, HT1080-FAP co-culture [3]: 538 nM
Average IC90; Jurkat-CD137 NFkB-luciferase, HT1080-FAP co-culture [3]: 110 nM
Ratio IC50/EC50; Jurkat-CD137 NFkB-luciferase, HT1080-FAP co-culture [3]: 2300
Ratio IC90/EC90; Jurkat-CD137 NFkB-luciferase, HT1080-FAP co-culture [3]: 49.4

B15: CD137 #8 (A49.V43) + FAP #3 (A11 VK7/VH1) (bispecific antibody, human IgG1, kappa, L234A L235A)
heavy: not shown
light: EIVMTQSPLSLPVTPGEPASISCRSSQSLLYSNGYNHLDWYLQKPGQSPQLLIYLGSNRASGVPDRFSGSGSGTDFTLKISRVEAEDVGVYYCMQALQTPPTFGQGTKLEIKRTVAAPSVFIFPPSDEQLKSGTASVVCLLNNFYPREAKVQWKVDNALQSGNSQESVTEQDSKDSTYSLSSTLTLSKADYEKHKVYACEVTHQGLSSPVTKSFNRGEC
EC90; Jurkat-CD137 NFkB-luciferase, HT1080-FAP co-culture [2]: 0.96
IC90; Jurkat-CD137 NFkB-luciferase, HT1080-FAP co-culture [2]: 60.8
Total AUC; Jurkat-CD137 NFkB-luciferase, HT1080-FAP co-culture [2]: 3.15e+07
Average EC50; Jurkat-CD137 NFkB-luciferase, HT1080-FAP co-culture [3]: 0.17 nM
Average EC90; Jurkat-CD137 NFkB-luciferase, HT1080-FAP co-culture [3]: 1.01 nM
Average IC50; Jurkat-CD137 NFkB-luciferase, HT1080-FAP co-culture [3]: 362 nM
Average IC90; Jurkat-CD137 NFkB-luciferase, HT1080-FAP co-culture [3]: 58.3 nM
Ratio IC50/EC50; Jurkat-CD137 NFkB-luciferase, HT1080-FAP co-culture [3]: 2130
Ratio IC90/EC90; Jurkat-CD137 NFkB-luciferase, HT1080-FAP co-culture [3]: 57.6

Further lines, results first:

binding result [1]: binds
B6: CD137 #B9 (antibody, human IgG1, V domains shown)
VH: B4 VH with A5V, F29L, S30T, S31N, S51T, I55N, F64L, I70M, T78I, A92G
VL: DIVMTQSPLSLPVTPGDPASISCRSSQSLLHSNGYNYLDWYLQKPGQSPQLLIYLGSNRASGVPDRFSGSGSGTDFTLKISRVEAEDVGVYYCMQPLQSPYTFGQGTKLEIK
notes: as for B1

binding result [1]: binds
B10: CD137 #A1 (antibody, human IgG1, V domains shown)
VH: QVQLVQSGAEVKKPGASVKVSCKASGYTLTNYPMHWVRQAPGQRPEWMGWSNAGNGNTKYSQEFQDRVTITRDTSASTAYMELSSLRSEDMAVYYCTREGVTGGFDIWGQGTMVTVSS
VL: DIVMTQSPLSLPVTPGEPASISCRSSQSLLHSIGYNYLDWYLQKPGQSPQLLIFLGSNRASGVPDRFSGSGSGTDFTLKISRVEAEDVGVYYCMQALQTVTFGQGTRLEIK
notes: as for B1

binding result [1]: binds
B11: CD137 #A44 (antibody, V domains shown)
VH: B10 VH with L29F, M34I, P45L, Q62P, A79V, A92S, T97A, G104A
VL: not shown
notes: as for B1

binding result [1]: binds
B12: CD137 #B12 (antibody, human IgG1, V domains shown)
VH: B10 VH with L29F, N31T, P45L, N55I, V68I, T71S, A79V, T97A, T102A
VL: B4 VL with G39N, H41Y, Y58I, G71E, L101Y, G105Q, V109L
notes: as for B1

binding result [1]: binds
B13: CD137 #A4 (antibody, human IgG1, V domains shown)
VH: DVQLQESGPGLVKPSQSLSLTCTVTGYSITSDYVWNWIRQFPGNKLEWMGYISYSGGTRYNPSLKSRISITRDTSENQFFLQLDSVTTEDTATFYCARSGNWDWYFDAWGTGTTVTVSS
VL: DIQMTQTTSSLSASLGDRVTISCRPSQDISNYLDWYQQKPDGTVKLLIYSTSRLPSGVPSRFSGSGSGTDYSLTISNMEQEDIATYFCQQGNTFPPTFGGGTKLEIK
notes: as for B1

binding result [1]: binds
B14: CD137 #A3 (antibody, human IgG1, V domains shown)
VH: DVQLQESGPGLVKPSQSLSLTCTVTGYSITSDYGWNWIRQFPGNKVEWMGYISYSGSTSYNPSLKSRISITRDTSKNQFFLQLKSVTTEDTATYYCARSDPYYGISWFAYWGQGPLVTVSA
VL: B13 VL with P25A, Y32F, D34N, S50Y, P55H, M78L, G91S, N92H, F94L, P96W
notes: as for B1

binding result [1]: binds
B16: CD137 #A12 (antibody, human IgG1, V domains shown)
VH: QVQLKQSGPGLVQPSQSLSITCTVSGFSLTSHGVHWVRQSPGKGLEWLGVIWSGGYTDYNAAFISRLSISTDNSKSHIFFKMNSLQADDTAIYYCARNGASYYYAMDYWGQGTSVTVSS
VL: DIVMTQAAFSNPVTLGISASISCRSSKSLLHSNGITYLYWYLQKPGQSPQLLIYQMSNLASGVPDRFSSSGSGTDFTLRISRVEAEDVGVYYCAQNLELPLTFGAGTKLELK
notes: human IgG1 KO (L234A/L235A)/kappa chimeric IgG; also called CD137 #Al2

binding result [1]: binds
B17: CD137 #B3 (antibody, human IgG1, V domains shown)
VH: DVQLVESGGDLVQPGGSRKLSCAASGFTFSSFGMHWVRQAPERGLEWVAYISSGSSTIYYADTVKGRFIISRDNPKNTLFLQMTSLRSEDTAMYYCARDWVDYWGQGTSVTVSS
VL: QIVLTQSPAIMSASPGEKVTITCSASSSVNYIHWFQQKPGTSPKLWIYSTSNLASGVPARFSGRGSGTSYSLTISRMEAEDAATYYCLQGSSYPWTFGGGTKLEIK
notes: as for B1

binding result [1]: binds
B18: CD137 #A2 (antibody, human IgG1, V domains shown)
VH: QVQLVQSGADVKKPGASVRVSCKASGYTFTSYPIHWVRQAPGHRLEWMGWSNAGIGNAKYSQEFQGRVTITRDTSASTAYMDLSSLTSEDLAVYYCAREGVAGAFDIWGQGTMVTVSA
VL: DIVMTQSPLSLPVTPGEPASISCRSSQNLLHSNGYNYLDWYLHKPGQSPQLLIYLGSIRASGVPDRFSGSESGTDFTLKISRVEAEDVGIYYCMQPLQIPYTFGQGTKLELK
notes: as for B1

binding result [1]: binds
B19: CD137 #A45 (antibody, human IgG1, V domains shown)
VH: B4 VH with A5V, T28I, S30T, S31N, F32Y, E63D, S77N, A79S, L101V
VL: B18 VL with N28S, Y35F, H43Q, Y54F, E86D, L111I
notes: as for B1

binding result [1]: binds
B20: CD137 #B10 (antibody, human IgG1, V domains shown)
VH: QVQLVQSGAEVKKPGASVKVSCKASGYTFTNYPMHWVRQAPGQRLEWMGWSNAGSGNTKYSQDFQGRVSITRDTSASTAYMELSSLKSEDMAIYYCAREGVAGAFDIWGQGTVVTVSS
VL: B4 VL with S28R, Y35F, H41Y, Y58H, L101Y, G105Q, V109L
notes: as for B1

binding result [1]: binds
B21: CD137 #A41 (antibody, human IgG1, V domains shown)
VH: QVQLQESGPGLVKPSETLSLNCTVSGGSISNYYWSWIRQPAGKGLEWIGRIYTSGNTNYNPSLKSRVTMSVDTSKNQFSLKLTSVTAADTAVYYCARDGNWNYADAFDIWGQGTMVTVSS
VL: DIQMTQSPSSVSASVGDRVTITCRASQGISSWLAWFQQIPGKAPKLLIYTASGLQSGVPSRFSGSGSGTDFTLTISSLQPEDFATYYCQQTNSFPFTFGPGTKVDIK
notes: as for B1
